Target: human TNFSF9 (R&D Systems; #2295-4L-025/CF) (human) (UniProt P41273)
Assay: MSD ELISA: TNFSF9 + 1 ug/mL antibody, binding to coated TNFRSF9

human TNFSF9 (R&D Systems; #2295-4L-025/CF) (human), sequence (P41273 71-254 limits assumed): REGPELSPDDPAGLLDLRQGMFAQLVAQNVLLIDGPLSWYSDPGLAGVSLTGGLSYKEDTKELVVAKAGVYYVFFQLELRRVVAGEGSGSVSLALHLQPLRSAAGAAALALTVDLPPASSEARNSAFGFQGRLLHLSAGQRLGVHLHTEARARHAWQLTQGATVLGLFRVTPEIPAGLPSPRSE

| Substance | % inhibition of ligand receptor interaction |
| --- | --- |
| huIgG1 (antibody) | 0% |
| mouse IgG1 isotype control antibody | 1% |
| msIgG2a (antibody) | -4% |
| msIgG2b (antibody) | -5% |
